# Reference: PMC8163975 (2021)
# Like-named read-outs stand apart in the source and are kept apart here.
# T1: RALA•mGppNHp (human, UniProt P11233 1-206)
# T1 chain: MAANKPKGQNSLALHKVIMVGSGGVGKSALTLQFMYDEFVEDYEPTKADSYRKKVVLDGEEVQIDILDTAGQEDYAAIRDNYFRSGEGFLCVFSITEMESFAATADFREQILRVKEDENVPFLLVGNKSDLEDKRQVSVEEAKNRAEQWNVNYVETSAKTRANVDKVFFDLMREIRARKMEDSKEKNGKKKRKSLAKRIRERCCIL
# T2: RRAS1•mGppNHp (human, UniProt P10301 1-218)
# T2 chain: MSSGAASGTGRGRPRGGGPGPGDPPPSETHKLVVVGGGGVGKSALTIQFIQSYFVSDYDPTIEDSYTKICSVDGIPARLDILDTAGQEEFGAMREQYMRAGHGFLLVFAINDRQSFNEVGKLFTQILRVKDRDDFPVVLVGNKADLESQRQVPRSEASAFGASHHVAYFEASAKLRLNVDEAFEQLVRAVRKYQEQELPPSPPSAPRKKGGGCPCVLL
# T3: RAP1B•mGppNHp (human, UniProt P61224 1-184)
# T3 chain: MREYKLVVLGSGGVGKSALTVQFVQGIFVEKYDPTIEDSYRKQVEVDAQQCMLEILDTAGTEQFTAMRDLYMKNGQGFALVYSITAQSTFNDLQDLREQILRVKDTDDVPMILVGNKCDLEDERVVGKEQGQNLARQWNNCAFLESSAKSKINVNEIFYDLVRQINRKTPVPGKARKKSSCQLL
# T4: RAP2A•mGppNHp (human, UniProt P10114 1-183)
# T4 chain: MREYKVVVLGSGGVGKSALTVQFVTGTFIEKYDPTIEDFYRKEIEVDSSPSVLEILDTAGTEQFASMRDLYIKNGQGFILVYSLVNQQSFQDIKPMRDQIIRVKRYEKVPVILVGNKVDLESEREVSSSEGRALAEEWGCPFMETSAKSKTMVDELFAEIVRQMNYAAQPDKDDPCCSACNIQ
# Experiments:
# Experiment in all cases: FP
# HRAS•mGppNHp = HRAS•mGppNHp (human, UniProt P01112 1-189)
# RIT1•mGppNHp [1] = target: T5, RIT1•mGppNHp (human, UniProt Q92963 1-219)
# T5 sequence (Q92963 whole entry): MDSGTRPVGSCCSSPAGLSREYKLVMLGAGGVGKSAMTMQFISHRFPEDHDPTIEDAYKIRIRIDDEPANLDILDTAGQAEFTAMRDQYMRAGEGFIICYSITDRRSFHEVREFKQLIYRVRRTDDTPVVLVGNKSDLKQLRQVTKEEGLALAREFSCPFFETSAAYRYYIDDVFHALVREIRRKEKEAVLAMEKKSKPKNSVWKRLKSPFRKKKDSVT
# RIT1•mGppNHp [2] = target: T5, RIT1•mGppNHp; remark: listed apart in the source
# RALA•mGppNHp = target: T1, RALA•mGppNHp
# RRAS1•mGppNHp = target: T2, RRAS1•mGppNHp
# RAP1B•mGppNHp = target: T3, RAP1B•mGppNHp
# RAP2A•mGppNHp = target: T4, RAP2A•mGppNHp
# RHEB1•mGppNHp = RHEB1•mGppNHp (human, UniProt Q15382 1-184)
# Chain of RHEB1•mGppNHp (Q15382 whole entry): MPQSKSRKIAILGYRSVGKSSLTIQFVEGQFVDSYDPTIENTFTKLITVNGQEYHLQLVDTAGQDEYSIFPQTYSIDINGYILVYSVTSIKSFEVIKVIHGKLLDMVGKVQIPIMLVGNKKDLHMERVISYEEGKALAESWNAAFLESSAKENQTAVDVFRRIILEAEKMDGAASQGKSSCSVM
Kd (HRAS•mGppNHp) [µM],Kd (RIT1•mGppNHp [1]) [µM],Kd (RIT1•mGppNHp [2]) [µM],Kd (RALA•mGppNHp) [µM],Kd (RRAS1•mGppNHp) [µM],Kd (RAP1B•mGppNHp) [µM],Kd (RAP2A•mGppNHp) [µM],Kd (RHEB1•mGppNHp) [µM],Binder
10,170,,,,,,,"RASSF4-to-5 variant (RASSF4 RA domain with RASSF5 hotspot residues), MBP fusion (domain or fragment) YNHKTSVFTPADGIKTLVRVNSTMTTLQVLTLLLNKFRVEDGPSEFALYIVHESGERTKLKDCEYPLISRILHGPCEKIARIFLMEADL"
,,136,18,33,26,22,37,"RASSF1 RA domain, MBP fusion (domain or fragment) RGTSVRRRTSFYLPKDAVKHLHVLSRTRAREVIEALLRKFLVVDDPRKFALFERAERHGQVYLRKLLDDEQPLRLRLLAGPSDKALSFVLKENDS"
